Reference: paper PMC6299030, “An Allosteric-Probe for Detection of Alkaline Phosphatase Activity and Its Application in Immunoassay”

Target: Streptavidin (on Sepharose beads) (UniProt P22629 25-183)
Assay: bead binding, flow cytometry and fluorescence microscopy; SA3 released from AP by lambda exo, no ALP; 70 mM Tris-HCl, 10 mM MgCl2, pH 8.0; 200 nM AP in 100 uL, 3 uL SA beads, 5 min at room temperature after enzyme steps at 37 C and 75 C inactivation
Details: protein: commercial; tags: immobilized on Sepharose beads; chain copies: 4; label: 5'-FAM; hairpin with bulge

Streptavidin (on Sepharose beads), sequence (P22629 25-183): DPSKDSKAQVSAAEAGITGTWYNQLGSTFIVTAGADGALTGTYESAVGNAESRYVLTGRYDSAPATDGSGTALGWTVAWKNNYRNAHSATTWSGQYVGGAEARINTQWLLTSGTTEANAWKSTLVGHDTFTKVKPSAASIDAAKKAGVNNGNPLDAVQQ

ATTGACGCGTGTGACGCAACACTCAAT (structured_DNA) [SA3]: binds.
